Data on one molecule can be found in paper PMC4141822.

Holding throughout (details): protein: recombinant; tags: none stated (pET24a); label: 5' 32P
In data set [1] the target is T1, Csa5 D33A (Thermoproteus tenax Kra1, UniProt G4RJZ0 1-130, D33A).
T1 sequence: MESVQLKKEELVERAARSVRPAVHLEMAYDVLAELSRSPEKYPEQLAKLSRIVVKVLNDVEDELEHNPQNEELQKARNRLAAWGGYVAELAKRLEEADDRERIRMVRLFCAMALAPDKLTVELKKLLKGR
The data set can be described thus: EMSA; shift from 15 uM; EMSA: 100 mM HEPES/KOH pH 7, 10 mM beta-mercaptoethanol, 37 C 30 min, 6% native TBE PAGE; MST: 50 mM Tris-HCl pH 7.4, 150 mM NaCl, 0.05% Tween-20, 37 C 30 min. For orientation: Mobility shift assays separate free from complexed probe on a gel.

Data set [2] has as its target T2, Csa5 Y29A (Thermoproteus tenax Kra1, UniProt G4RJZ0 1-130, Y29A).
T2 sequence: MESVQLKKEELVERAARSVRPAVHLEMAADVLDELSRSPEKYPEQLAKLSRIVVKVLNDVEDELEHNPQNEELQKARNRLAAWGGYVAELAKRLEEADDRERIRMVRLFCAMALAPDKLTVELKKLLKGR
The data set is described as above.

Data set [3] deals with T3, Csa5 D30A/D33A (Thermoproteus tenax Kra1, UniProt G4RJZ0 1-130, D30A;D33A).
T3 sequence: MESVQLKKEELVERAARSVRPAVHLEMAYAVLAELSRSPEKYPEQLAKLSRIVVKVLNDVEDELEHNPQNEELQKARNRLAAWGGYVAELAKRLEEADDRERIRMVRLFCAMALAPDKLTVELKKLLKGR
Put plainly: EMSA; defined shift from 30 uM; EMSA: 100 mM HEPES/KOH pH 7, 10 mM beta-mercaptoethanol, 37 C 30 min, 6% native TBE PAGE; MST: 50 mM Tris-HCl pH 7.4, 150 mM NaCl, 0.05% Tween-20, 37 C 30 min.

B1: non-target (NT) ssDNA 97 nt (ssDNA)
DNA: GTCGACTAATACGACTCACTATAGGCCTATCGCTTGTCCAACCGGGCTCCTCTATATGTCGTCATTAGCTTACCGCTGAGCAATAACTAGCAAGCTT
For B1, the binding signal in data set [1] is ~18 % of WT binding; in data set [2] it was ~10 % of WT binding; in data set [3] it was ~4 % of WT binding.
